B1: 3Q-SNARE complex (QaQbQc) on proteoliposomes (complex)
chain 1: MSFFDIEAQSSKGNSQQEPQFSTNQKTKELSNLIETFAEQSRVLEKECTKIGSKRDSKELRYKIETELIPNCTSVRDKIESNILIHQNGKLSADFKNLKTKYQSLQQSYNQRKSLFPLKTPISPGTSKERKDIHPRTEAVRQDPESSYISIKVNEQSPLLHNEGQHQLQLQEEQEQQQQGLSQEELDFQTIIHQERSQQIGRIHTAVQEVNAIFHQLGSLVKEQGEQVTTIDENISHLHDNMQNANKQLTRADQHQRDRNKCGKVTLIIIIVVCMVVLLAVLS
chain 2: MSSLLISYESDFKTTLEQAKASLAEAPSQPLSQRNTTLKHVEQQQDELFDLLDQMDVEVNNSIGDASERATYKAKLREWKKTIQSDIKRPLQSLVDSGDRDRLFGDLNASNIDDDQRQQLLSNHAILQKSGDRLKDASRIANETEGIGSQIMMDLRSQRETLENARQTLFQADSYVDKSIKTLKTMTRRLVANKFISYAIIAVLILLILLVLFSKFK
chain 3: MAANSVGKMSEKLRIKVDDVKINPKYVLYGVSTPNKRLYKRYSEFWKLKTRLERDVGSTIPYDFPEKPGVLDRRWQRRYDDPEMIDERRIGLERFLNELYNDRFDSRWRDTKIAQDFLQLSKPNVSQEKSQQHLETADEVGWDEMIRDIKLDLDKESDGTPSVRGALRARTKLHKLRERLEQDVQKKSLPSTEVTRRAALLRSLLKECDDIGTANIAQDRGRLLGVATSDNSSTTEVQGRTNNDLQQGQMQMVRDQEQELVALHRIIQAQRGLALEMNEELQTQNELLTALEDDVDNTGRRLQIANKKARHFNNSA

Test [1] concerns the target HOPS (homotypic fusion and vacuole protein sorting complex) (S. cerevisiae, UniProt P12868;Q03308;P27801;P20795;Q07468;P38959). Nature of the test: proteoliposome floatation.
In test [2] the target is four-SNARE bundle with GST-Qa (GST-Qa, R, Qb, Qc) in detergent (S. cerevisiae, UniProt Q12241;Q12255;Q04338;P32912). Nature of the test: pull-down.
The target of test [3] is B1. Nature of the test: proteoliposome floatation.
In test [4] the target is 4-SNARE complex (R, Qa, Qb, Qc) on proteoliposomes (S. cerevisiae, UniProt Q12255;Q12241;Q04338;P32912). The experiment in a line: proteoliposome floatation.
The target in test [5] is T1, Qa-SNARE Vam3 in proteoliposomes (S. cerevisiae, UniProt Q12241 1-283).
T1 sequence: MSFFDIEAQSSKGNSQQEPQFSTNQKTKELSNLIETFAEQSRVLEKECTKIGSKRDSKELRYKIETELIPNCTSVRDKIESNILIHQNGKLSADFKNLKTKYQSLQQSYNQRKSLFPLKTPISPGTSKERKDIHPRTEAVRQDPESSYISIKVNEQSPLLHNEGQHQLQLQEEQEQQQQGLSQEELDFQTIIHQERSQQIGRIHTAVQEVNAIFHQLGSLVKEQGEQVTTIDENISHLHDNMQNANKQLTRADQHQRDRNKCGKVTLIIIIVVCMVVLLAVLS
Nature of the test: co-IP.

Turning to B1, in test [1], the binding result was “binds”.

B2: Sec18 (enzyme)
chain: MFKIPGFGKAAANHTPPDMTNMDTRTRHLKVSNCPNNSYALANVAAVSPNDFPNNIYIIIDNLFVFTTRHSNDIPPGTIGFNGNQRTWGGWSLNQDVQAKAFDLFKYSGKQSYLGSIDIDISFRARGKAVSTVFDQDELAKQFVRCYESQIFSPTQYLIMEFQGHFFDLKIRNVQAIDLGDIEPTSAVATGIETKGILTKQTQINFFKGRDGLVNLKSSNSLRPRSNAVIRPDFKFEDLGVGGLDKEFTKIFRRAFASRIFPPSVIEKLGISHVKGLLLYGPPGTGKTLIARKIGTMLNAKEPKIVNGPEILSKYVGSSEENIRNLFKDAEAEYRAKGEESSLHIIIFDELDSVFKQRGSRGDGTGVGDNVVNQLLAKMDGVDQLNNILVIGMTNRKDLIDSALLRPGRFEVQVEIHLPDEKGRLQIFDIQTKKMRENNMMSDDVNLAELAALTKNFSGAEIEGLVKSASSFAINKTVNIGKGATKLNTKDIAKLKVTREDFLNALNDVTPAFGISEEDLKTCVEGGMMLYSERVNSILKNGARYVRQVRESDKSRLVSLLIHGPAGSGKTALAAEIALKSGFPFIRLISPNELSGMSESAKIAYIDNTFRDAYKSPLNILVIDSLETLVDWVPIGPRFSNNILQMLKVALKRKPPQDRRLLIMTTTSAYSVLQQMDILSCFDNEIAVPNMTNLDELNNVMIESNFLDDAGRVKVINELSRSCPNFNVGIKKTLTNIETARHDEDPVNELVELMTQSA
Turning to B2, the binding result in test [2], in test [3], in test [4] and in test [1] was “binds” throughout.

B3: R-SNARE Nyv1 (natural protein)
chain: MKRFNVSYVEVIKNGETISSCFQPFQKNENYGTITSANEQITPVIFHNLIMDMVLPKVVPIKGNKVTKMSMNLIDGFDCFYSTDDHDPKTVYVCFTLVDMPKILPIRILSGLQEYESNATNELLSSHVGQILDSFHEELVEYRNQTLNSSGNGQSSNGNGQNTISDIGDATEDQIKDVIQIMNDNIDKFLERQERVSLLVDKTSQLNSSSNKFRRKAVNIKEIMWWQKVKNITLLTFTIILFVSAAFMFFYLW
As to B3, the binding result in test [5] and in test [1] was “binds” in each case.

B4: Sec17 (natural protein)
chain: MSDPVELLKRAEKKGVPSSGFMKLFSGSDSYKFEEAADLCVQAATIYRLRKELNLAGDSFLKAADYQKKAGNEDEAGNTYVEAYKCFKSGGNSVNAVDSLENAIQIFTHRGQFRRGANFKFELGEILENDLHDYAKAIDCYELAGEWYAQDQSVALSNKCFIKCADLKALDGQYIEASDIYSKLIKSSMGNRLSQWSLKDYFLKKGLCQLAATDAVAAARTLQEGQSEDPNFADSRESNFLKSLIDAVNEGDSEQLSEHCKEFDNFMRLDKWKITILNKIKESIQQQEDDLL
With B4, in test [2], the binding result is listed as “binds”.

Values taken from publication PMC11151092 (Molecular Biology of the Cell, 2024).
